In US20260226152A1 (GlaxoSmithKline, published 2026):
Positions count from the first letter of the chain named.

Legend:
Human recombinant IL-12 = target: T1, Human recombinant IL-12 (human, UniProt P29459 23-219); assay: cell-based or functional assay
T1 sequence 1: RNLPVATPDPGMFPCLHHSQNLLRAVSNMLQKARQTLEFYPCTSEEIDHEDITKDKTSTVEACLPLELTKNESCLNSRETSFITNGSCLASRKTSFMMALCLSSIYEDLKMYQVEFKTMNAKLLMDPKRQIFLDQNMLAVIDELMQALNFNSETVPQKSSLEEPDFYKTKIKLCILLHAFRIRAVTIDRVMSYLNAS
T1 sequence 2: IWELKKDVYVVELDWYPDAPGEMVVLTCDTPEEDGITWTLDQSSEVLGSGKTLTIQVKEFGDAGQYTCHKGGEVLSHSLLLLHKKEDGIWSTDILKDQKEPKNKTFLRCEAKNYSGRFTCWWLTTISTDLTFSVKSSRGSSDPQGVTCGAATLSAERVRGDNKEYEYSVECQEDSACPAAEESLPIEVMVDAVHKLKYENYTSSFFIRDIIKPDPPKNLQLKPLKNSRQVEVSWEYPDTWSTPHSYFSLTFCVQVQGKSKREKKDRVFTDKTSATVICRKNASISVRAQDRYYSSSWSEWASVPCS

Human IL-23 [1] = target: T2, Human IL-23 (human, UniProt Q9NPF7 20-189; P29460 23-328); assay: cell-based or functional assay
T2 sequence 1: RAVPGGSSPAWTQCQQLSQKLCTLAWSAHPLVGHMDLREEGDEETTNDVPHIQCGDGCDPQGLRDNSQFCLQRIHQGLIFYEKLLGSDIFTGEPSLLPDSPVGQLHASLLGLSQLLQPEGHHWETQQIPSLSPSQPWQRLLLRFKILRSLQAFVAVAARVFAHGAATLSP
T2 sequence 2: T1 sequence 2

Cynomolgus monkey IL-18 [2] = target: T3, Cynomolgus monkey IL-18 (Rhesus monkey (identical to cynomolgus …, UniProt Q9BGI5 37-193)); assay: cell-based or functional assay
T3 sequence: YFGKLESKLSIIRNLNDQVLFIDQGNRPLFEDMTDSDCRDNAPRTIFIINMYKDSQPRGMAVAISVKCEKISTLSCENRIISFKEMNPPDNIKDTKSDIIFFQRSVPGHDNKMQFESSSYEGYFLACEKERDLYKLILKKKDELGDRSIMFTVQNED

Human IL-23 [3] = target: T2, Human IL-23; assay: cell-based or functional assay; remark: listed apart in the source
Human IL-23 [4] = target: T2, Human IL-23; assay: cell-based or functional assay; remark: listed apart in the source
Cynomolgus monkey IL-23 = target: T4, Cynomolgus monkey IL-23 (cynomolgus monkey); assay: SPR (Biacore 8K/T200), antibody captured on Protein A/G, cytokine as analyte, 25 C, geometric mean of n=3-5
T4 construct: also called Cyno IL-23
Experimental: (§1) A heterodimeric bsAb, alongside anti-IL-18 and anti-IL-23 common light chain control bispecific antibodies, were assessed for binding to human and cyno IL-18 and IL-23, using the Biacore 8K and T200 (Cytiva) surface plasmon resonance (SPR) instruments. All reagents were generated recombinantly in-house with the exception of Rhesus monkey IL-18 which was purchased from R&D systems (Cat #2548-RM-025/CF). Rhesus and cynomolgus monkey amino acid sequences are identical. Therefore, the protein will be referred to as cynomolgus monkey IL-18.
(§2) Heterodimeric bsAb, anti-IL-18 and anti-IL-23 common light chain bispecific control molecules were assessed for binding to recombinant human and cynomolgus monkey IL-18 and IL-23 using the Biacore 8K and T200 (Cytiva) SPR instruments. The antibodies were captured onto Protein A/G, which was immobilised onto flow cell 2 of 8 channels (Biacore 8K) or flow cells 2, 3 and 4 (Biacore T200) of a CM5 series S sensor chip by primary amine coupling. The IL-18 or IL-23 analytes were passed over the captured antibodies at varying concentrations between 0.04-25 nM. The association phase was for 240 seconds at 30 μl/min, followed by a dissociation step of up to 1200 seconds. A 0 nM (i.e., buffer alone) injection was used to double reference the binding curves. Regeneration of the chip surface between cycles was carried out using 50 mM NaOH. The assay was run at 25° C. in HBS-EP⁺ buffer. Biacore 8K control software version 3.0 was used to run the experiment. Data was analysed using Biacore 8K Insight evaluation software version 3.0. Biacore T200 control software version 1.0 was used to run the experiment. Data was analysed using Biacore T200 evaluation software version 2.0. Affinities and kinetics were determined using the 1:1 kinetic fit inherent to the software where possible. All affinity values generated using both instruments were combined to determine geometric mean values.

Human IL-18 [5] = target: T5, Human IL-18 (human, UniProt Q14116 37-193); assay: as above
T5 construct: Recombinant, made in-house; In the BLI assay the loaded cytokine was captured on anti-Penta His sensors, so a His tag is implied but not described; also called recombinant human IL-18; interleukin 18
T5 sequence: T3 sequence with I11V, N50S, A63T, R79K, Y134F, K141E
Experimental: as §1, §2

Cynomolgus monkey IL-18 [6] = target: T3, Cynomolgus monkey IL-18; assay: as above
Experimental: as §1, §2

Human IL-23 [7] = target: T2, Human IL-23; assay: as above
Experimental: as §1, §2

Human IL-18 [8] = target: T5, Human IL-18; assay: cell-based or functional assay
Human IL-18 [9] = target: T5, Human IL-18; assay: cell-based or functional assay; remark: listed apart in the source

B1: Ustekinumab (antibody, V domains shown)
VH: EVQLVQSGAEVKKPGESLKISCKGSGYSFTTYWLGWVRQMPGKGLDWIGIMSPVDSDIRYSPSFQGQVTMSVDKSITTAYLQWNSLKASDTAMYYCARRRPGQGYFDFWGQGTLVTVSS
VL: DIQMTQSPSSLSASVGDRVTITCRASQGISSWLAWYQQKPEKAPKSLIYAASSLQSGVPSRFSGSGSGTDFTLTISSLQPEDFATYYCQQYNIYPYTFGQGTKLEIK
In the case of B1, the “IC50 (pM), inhibition of IL-12-induced IFNγ secretion by NK-92 cells” value (Human recombinant IL-12) is reported as 875 pM and the “IC50 (ug/mL), inhibition of IL-12-induced IFNγ secretion by NK-92 cells” value (Human recombinant IL-12) is reported as 0.13 µg/mL.

B2: Heterodimeric bsAb 4 (bispecific antibody, human IgG1, kappa)
heavy 1: QVQLVQSGAEVKKPGSSVKVSCKASGYTFTDQTIHWMRQAPGQGLEWIGYIYPRDDSPKYNENFKGKVTITADKSTSTAYMELSSLRSEDTAVYYCAIPDRSGYAWFIYWGQGTLVTVSSASTKGPSVFPLAPSSKSTSGGTAALGCRVKDYFPEPVTVSWNSGALTSGVHTFPAVLQSSGLYSLSSVVTVPSSSLGTQTYICNVNHKPSNTKVDKKVEPKSCDKTHTCPPCPAPELAGAPSVFLFPPKPKDTLYITREPEVTCVVVDVSHEDPEVKFNWYVDGVEVHNAKTKPREEQYNSTYRVVSVLTVLHQDWLNGKEYKCKVSNKALPAPIEKTISKAKGQPREPQVYVYPPSRDELTKNQVSLTCLVKGFYPSDIAVEWESNGQPENNYKTTPPVLDSDGSFALVSKLTVDKSRWQQGNVFSCSVMHEALHNHYTQKSLSLSPGK
light 1: DIQMTQSPSSLSASVGDRVTITCKASRDVAIAVAWYQQKPGKVPKLLIYWASTRHTGVPSRFSGSGSRTDFTLTISSLQPEDVADYFCHQYSSYPFTFGSGTKLEIKRTVAAPSVFIFPPSDEELKSGTASVECLLNNFYPREAKVQWKVDNALQSGNSQESVTEQDSKDSTYSLSSTLTLSKADYEKHKVYACEVTHQGLSSPVTKSFNRGEC
heavy 2: QVQLVQSGAEVKKPGASVKVSCKVSGEISTGYYFHWVRQAPGKGLEWMGRIDPEDDSTKYAERFKDRVTMTEDTSTDTAYMELSSLRSEDTAVYYCTTWRIYRDSSGRPFYVMDAWGQGTLVTVSSASTKGPSVFPLAPSSKSTSGGTAALGCEVTDYFPEPVTVSWNSGALTSGVHTFPAVLESSGLYSLSSVVTVPSSSLGTQTYICNVNHKPSNTKVDKKVEPKSCDKTHTCPPCPAPELAGAPSVFLFPPKPKDTLYITREPEVTCVVVDVSHEDPEVKFNWYVDGVEVHNAKTKPREEQYNSTYRVVSVLTVLHQDWLNGKEYKCKVSNKALPAPIEKTISKAKGQPREPQVYVLPPSRDELTKNQVSLLCLVKGFYPSDIAVEWESNGQPENNYLTWPPVLDSDGSFFLYSKLTVDKSRWQQGNVFSCSVMHEALHNHYTQKSLSLSPGK
light 2: DIQMTQSPSSVSASVGDRVTITCLASEDIYTYLTWYQQKPGKAPKLLIYGANKLQDGVPSRFSGSGSGTDYTLTISSLQPEDFATYYCLQGSKFPLTFGQGTKLEIKRTVAAPSVFIFPPSDERLKSGTASVVCLLNNFYPREAKVQWKVDNALQSGNSQESVTEQDSKDSTYSLSSRLTLSKADYEKHKVYACEVTHQGLSSPVTKSFNRGEC
notes: Het-mAb format: anti-IL-23 mAb (risankizumab) on ZA and anti-IL-18 mAb on ZB, with Fc heterodimerisation, silencing and half-life extending mutations; Stably expressed in CHO cells; also called anti-IL-23xIL-18 HETmAb
For B2, the “IC50 pM (Geomean), neutralisation of human IL-23-induced pSTAT3 in DB cells (MSD)” value (Human IL-23 [1]) was 58.9 pM, the “pIC50 (Geomean), neutralisation of human IL-23-induced pSTAT3 in DB cells (MSD)” value (Human IL-23 [1]) was 10.2 and the “IC50 (pM, Mean), neutralisation of cynomolgus IL-18-induced IFNγ secretion by KG-1 cells” value (Cynomolgus monkey IL-18 [2]) was 97.7 pM. The “pIC50 (GeoMean), neutralisation of cynomolgus IL-18-induced IFNγ secretion by KG-1 cells” value (Cynomolgus monkey IL-18 [2]) was 10, the “Fold change (from anti-IL-23, IL-23 control 1) of IC50, IL-23-induced mouse IL-17A in mouse splenocytes” value (Human IL-23 [3]) was 2.67 fold and the “IC50 pM, inhibition of human IL-23-induced mouse IL-17A secretion in mouse splenocytes” value (Human IL-23 [3]) was 111 pM. For the same binder, the “pIC50 (M), inhibition of human IL-23-induced mouse IL-17A secretion in mouse splenocytes” value (Human IL-23 [3]) was 10, the “Fold change (from anti-IL-23, IL-23 control 1) of IC50, IL-23-induced pSTAT3 in T cells of human whole blood” value (Human IL-23 [4]) was 2.42 fold and the “IC50, inhibition of IL-23-induced pSTAT3 in T cells of human whole blood” value (Human IL-23 [4]) was 395 pM. For the same binder, the “pIC50, inhibition of IL-23-induced pSTAT3 in T cells of human whole blood” value (Human IL-23 [4]) was 9.4, the Kd (Cynomolgus monkey IL-23) was 0.162 nM and the Kd (Human IL-18 [5]) was 0.035 nM. For the same binder, the Kd (Cynomolgus monkey IL-18 [6]) was 0.068 nM, the Kd (Human IL-23 [7]) was 0.297 nM and the “IC50 (pM, Mean), neutralisation of human IL-18-induced IFNγ secretion by KG-1 cells” value (Human IL-18 [8]) was 115 pM. The “pIC50 (GeoMean), neutralisation of human IL-18-induced IFNγ secretion by KG-1 cells” value (Human IL-18 [8]) was 9.94, the “Fold change (from IL-18 control 1) of IC50, LPS + IL12-induced IFN-γ in human whole blood” value (Human IL-18 [9]) was 1.9 fold and the “IC50 nM, inhibition of LPS + IL12-induced IFN-γ in human whole blood” value (Human IL-18 [9]) was 10.5 nM. For the same binder, the “pIC50, inhibition of LPS + IL12-induced IFN-γ in human whole blood” value (Human IL-18 [9]) was 8.
